Reference: PMC3351151 (Nucleic Acids Research, 2012)

Biological target: the molecule itself
Assay: crystal structure

B1: His-HypR (His-tagged HypR, wild type), oxidized by diamide or NaOCl (natural protein, B. subtilis, UniProt P37486 1-125, looked up)
chain: MSEKKNIYPNKEGCPVEFTLDVIGGKWKGILFYHMIDGKKRFNEFRRICPSITQRMLTLQLRELEADGIVHREVYHQVPPKVEYSLTEFGRTLEPIVLQMKEWGESNRDVLESYRSNGLVKDQQK
modifications: Cys14-Cys49' intersubunit disulphide after oxidation with diamide or NaOCl
In the case of B1, the “stoichiometry N” value is reported as 2.
